Positions count from the first letter of the chain named.
T1: recombinant murine midkine (muMK) (murine, UniProt P12025 23-140)
T1 construct: also called murine MK; Murine MK
T1 sequence (looked up): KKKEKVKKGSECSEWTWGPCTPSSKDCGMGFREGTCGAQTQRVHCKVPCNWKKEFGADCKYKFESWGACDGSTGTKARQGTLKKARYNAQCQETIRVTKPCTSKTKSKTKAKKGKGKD

T2: recombinant human midkine (huMK) (human, UniProt P21741 21-143)
T2 construct: also called human MK; Human MK
T2 sequence (looked up): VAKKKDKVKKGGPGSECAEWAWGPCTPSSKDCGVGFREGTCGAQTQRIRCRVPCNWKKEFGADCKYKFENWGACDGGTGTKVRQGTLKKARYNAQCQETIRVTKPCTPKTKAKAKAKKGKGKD

B1: IP14-H3L3 (antibody, V domains shown)
VH: QVQLVQSGAEVKKPGASVKVSCKASGQSFSSYWMNWVRQAPGQGLEWMGMIHPSDSETILNQKFKDKVTMTRDTSTSTVYMELSSLRSEDTAVYYCARWSAKRGDFWGQGTLVTVSS
VL: DIVLTQSPATLSLSPGERATLSCRASESISNNLHWYQQKPGQAPRLLIYYASQSISGIPARFSGSGPGTDFTLTISSLEPEDFAVYYCQQSNSWPLTFGGGTKLEIKR
notes: also called Hv3 Lv3
B2: IP14-H3L6 (antibody, V domains shown)
VH: B1 VH
VL: EIVLTQSPSTLSASVGDRVNITCRASESISNNLHWYQQKPHKAPKLLIYYASQSISGVPSRFSGSGSGTEFNLTISSVQPDDFATYYCQQSNSWPLTFGQGTKVEIKR
notes: also called Hv3 Lv6
B3: IP14-H6L8 (antibody, V domains shown)
VH: QVQLVQSGGGLVKPGHSLRLSCAASGQSFSSYWMNWVRQAPGKGLEWIGMIHPSDSETILNQKFKDKATLSVDIAKNSAYLQMNSLRAEDTAVYYCSSWSAKRGDFWGQGTLVTVSS
VL: B1 VL with G41H, I58V, P67S, L78V, G100Q, L104V
notes: also called hIP14-H6L8; Hv6 Lv8
B4: IP14-H6L7 (antibody, V domains shown)
VH: B3 VH
VL: B1 VL with T20N, G41H, I58V, P67S, T72N, L78V, G100Q, L104V
notes: also called Hv6 Lv7
B5: IP14-H6L6 (antibody, V domains shown)
VH: B3 VH
VL: B2 VL
notes: also called Hv6 Lv6
B6: IP14-H6L3 (antibody, V domains shown)
VH: B3 VH
VL: B1 VL
notes: also called hIP14-H6L3; Hv6 Lv3
B7: IP14-H5L8 (antibody, V domains shown)
VH: B3 VH with K13Q, H16G, K43Q, S71T, A75S, S78T
VL: B1 VL with G41H, I58V, P67S, L78V, G100Q, L104V
notes: also called hIP14-H5L8; Hv5 Lv8
B8: mouse-human chimeric IP14 antibody (antibody, V domains shown)
VH: QVQLQQPGAELVRPGHSVKLSCKASGQSFSSYWMNWVRQRPGQGLEWIGMIHPSDSETILNQKFKDKATLTVDISSNTAYMQLSSPTSEDSAVYFCSSWSAKRGDFWGQGTTLTVSS
VL: DIVLTQSPATLSVTPGDSVNLSCRASESISNNLHWYQQKSHESPRLLIKYASQSISGIPSRFSGSGSGTDFNLSVNSVETEDFGMYFCQQSNSWPLTFGAGTKLELKR
notes: also called chimeric antibody; Hv0 Lv0
B9: murine IP14 precursor antibody (antibody, V domains shown)
VH: B8 VH
VL: B8 VL
notes: Murine monoclonal antibody; also called mIP14; mAb IP14

target: T1, recombinant murine midkine (muMK); test: ELISA on plate-coated muMK, antibody titrated up to 3 µg/ml, Abs 450nm on the sheet's axis [continued), panel IP14 Hv3 Murine Midkine]
Protocol: The binding specificity and affinity of the humanised anti-MK antibodies to recombinant human MK (huMK) and murine MK (muMK) was assessed by ELISA. ELISA plates (Nunc Immuno MaxiSorp 96 well flat-bottom were coated with 100 uL of 2 ug/mL of either huMK or muMK in 2% BSA/PBS (overnight at room temperature). After washing, blocking (1 h at 37° C.), and washing again, the humanised anti-MK and chimeric antibodies described in Example 1 were analysed for binding to huMK or muMK at concentrations ranging between 3 μg/ml and 0.00004 μg/ml in 2% BSA/PBS (1 h at 37° C.). After washing, the binding of antibody was detected with goat anti-mouse IgG (Fab specific)-HRP conjugate (Sigma, Cat. No. A9917) and SigmaFast OPD substrate (Sigma, Cat. No. P9187). […] Binding affinity data for the humanised anti-MK antibodies to huMK and muMK are presented in Table 6 and Table 7 respectively, and in FIG. 3.

Row | binding result | Binder
1 | binds | B1
2 | binds | B2

target: T2, recombinant human midkine (huMK); test: ELISA, plate coated with huMK
Protocol: (§1) The binding specificity and affinity of the humanised anti-MK antibodies to recombinant human MK (huMK) and murine MK (muMK) was assessed by ELISA. ELISA plates (Nunc Immuno MaxiSorp 96 well flat-bottom were coated with 100 uL of 2 ug/mL of either huMK or muMK in 2% BSA/PBS (overnight at room temperature). After washing, blocking (1 h at 37° C.), and washing again, the humanised anti-MK and chimeric antibodies described in Example 1 were analysed for binding to huMK or muMK at concentrations ranging between 3 μg/ml and 0.00004 μg/ml in 2% BSA/PBS (1 h at 37° C.). After washing, the binding of antibody was detected with goat anti-mouse IgG (Fab specific)-HRP conjugate (Sigma, Cat. No. A9917) and SigmaFast OPD substrate (Sigma, Cat. No. P9187). The reaction was stopped with 3 M HCl, absorbance read at 490 nm on a Dynex Technologies MRX TC II plate reader and the binding curves plotted. Binding affinity data for the humanised anti-MK antibodies to huMK and muMK are presented in Table 6 and Table 7 respectively, and in FIG. 3.

Row | EC50 [nM] | Binder
3 | 0.042 | B3
4 | 0.068 | B4
5 | 0.088 | B5
6 | 5.79 | B1
7 | 0.07 | B6
8 | 0.06 | B7
9 | 0.104 | B8
10 | 5.7 | B2

target: T2, recombinant human midkine (huMK); test: cell-based or functional assay

Row | % Inhibition of UMR106 cell migration, Assay 4 [%] | % Inhibition of UMR106 cell migration, Assay 5 [%] | % Inhibition of UMR106 cell migration, Assay 6 [%] | Mean % Inhibition of UMR106 cell migration [%] | Mean Cells/Field, Assay 4 (UMR106 migration, antibody 100 ug/mL, MK-17 20 µg/mL) [cells/field] | Mean Cells/Field, Assay 5 (UMR106 migration, antibody 100 ug/mL, MK-17 20 µg/mL) [cells/field] | Mean Cells/Field, Assay 6 (UMR106 migration, antibody 100 ug/mL, MK-17 20 µg/mL) [cells/field] | Binder
11 | 44 | 24 | 48 | 38.7 | 27 | 32 | 22 | B3
12 | 48 | 40 | 45 | 44.3 | 25 | 25 | 23 | B6
13 | 60 | 31 | 31 | 40.7 | 19 | 29 | 29 | B7
14 | 6 | 10 | 38 | 18 | 45 | 38 | 26 | B9

target: T2, recombinant human midkine (huMK); test: ELISA by the methods of Example 2 (printed as KD)
Protocol: as §1
(§2) KD values for hIP14-H5L8, hIP14-H6L3 and hIP14-H6L8 was then compared with the KD values obtained for the corresponding murine IP14 precursor antibody and the chimeric antibody using the methods described in Example 2. As is apparent from Table 7, the humanised mIP14 antibodies designated hIP14-H5L8, hIP14-H6L3, and hIP14-H6L8 were each shown to have better binding affinity than the murine IP14 precursor antibody and the chimeric antibody for huMK and muMK. Based on this finding, these candidate antibodies were produced to 100 mg scale to enable further testing in functional assays to determine biological function.

Row | Kd [nM] | Binder
15 | 0.042 | B3
16 | 0.07 | B6
17 | 0.06 | B7
18 | 0.144 | B9
19 | 0.104 | B8

target: T1, recombinant murine midkine (muMK); test: ELISA by the methods of Example 2 (printed as KD)
Protocol: as §1, §2

Row | Kd [nM] | Binder
20 | 0.091 | B3
21 | 0.048 | B6
22 | 0.05 | B7
23 | 0.166 | B9
24 | 0.13 | B8

target: T1, recombinant murine midkine (muMK); test: ELISA, plate coated with muMK
Protocol: as §1

Row | EC50 [nM] | Binder
25 | 0.091 | B3
26 | 0.051 | B4
27 | 0.048 | B5
28 | 0.048 | B6
29 | 0.05 | B7
30 | 0.13 | B8

— patent publication US20170240628A1 (CELLMID, published 2017)
